{
  "source": "paper PMC8251938",
  "about": "“Cooperation between a T Domain and a Minimal C‐Terminal Docking Domain to Enable Specific Assembly in a Multiprotein NRPS” (Angewandte Chemie (International Ed. in English), 2021)",
  "molecules": {"B1": {"name": "PaxA_(981-1084), T1-CDD di-domain construct (apo), X. cabanillasii JM26 (domain or fragment)", "chain": "DHSSVITQEYAAPQGEIEEQLADIWQTILKIDRIGRYDNFFELGGHSLLVLQLQSRINEIFDVDISIQQLFAHPSICQLEECIINAQLLQFDADSLQDIYKSME"}, "B2": {"name": "PaxA981–1084: X. cabanillasii PaxA T1-CDD di-domain (protein)", "chain": "B1 chain"}, "B3": {"name": "PaxA T1-CDD di-domain with the Ppant moiety (holo), X. cabanillasii JM26 (domain or fragment)", "chain": "B1 chain", "modifications": "phosphopantetheinyl (Ppant) arm attached to residue S1027"}},
  "key": {"[1]": {"biological_target": "PaxA_(986-1089), T1-CDD di-domain construct (apo), X. bovienii SS-2004 (Xenorhabdus bovienii SS-2004)", "experiment": "ITC; PaxA construct titrated with the PaxB NDD peptide or its variant; n=3 for the variants"}, "[2]": {"biological_target": "PaxA_(981-1084), T1-CDD di-domain construct (apo), X. cabanillasii JM26 (Xenorhabdus cabanillasii JM26) (UniProt W1J0W9)", "experiment": "ITC; PaxA construct titrated with the PaxB NDD peptide or its variant; n=3 for the variants"}, "[3]": {"biological_target": "T1, PaxB_(1-30) (PaxB NDD), X. cabanillasii JM26 (Xenorhabdus cabanillasii JM26)", "T1 chain": "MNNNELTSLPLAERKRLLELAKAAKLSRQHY", "experiment": "ITC; replicate 3"}, "[4]": {"biological_target": "T1, PaxB_(1-30) (PaxB NDD), X. cabanillasii …", "experiment": "ITC; apo, replicate 3"}, "[5]": {"biological_target": "T1, PaxB_(1-30) (PaxB NDD), X. cabanillasii …", "experiment": "ITC; apo, replicate 1"}, "[6]": {"biological_target": "T1, PaxB_(1-30) (PaxB NDD), X. cabanillasii …", "experiment": "ITC; replicate 1"}, "PaxB NDD": {"system": "PaxB NDD", "experiment": "ITC titration of X. cabanillasii PaxA constructs with PaxB NDD", "format": "binding, Xenorhabdus cabanillasii JM26", "details": "X. cabanillasii JM26, 20 °C, pH 6.5, one site model", "description": "Unfortunately, despite its very high affinity the complex between the PaxA T1‐^CDD di‐domain construct and the PaxB ^NDD peptide from the PaxS NRPS from X. bovienii SS‐2004 was not suitable for a full structure determination. The closely related species Xenorhabdus cabanillasii JM26 also contains the PaxS NRPS with PaxA and PaxB (Figure S4). […] The affinity of this interaction was not modulated by the presence of the Ppant moiety in the PaxA T1 domain (Figure S7). […] Thus, the interaction between PaxA and PaxB from the PaxS NRPS of X. cabanillasii has biophysical properties very similar to the one from the X. bovienii system and was amenable to a full structural characterization by NMR spectroscopy.\nEngland BioLabs) approach following the manufacturer`s instructions.\nProtein expression and purification […]\ninteractions, proteins from Xenorhabdus cabanillasii and Xenorhabdus bovienii were […]\nBAP1 under the control of a T7 promoter. All proteins of interest were expressed as SUMO […]\nconcentration measurements upon cleavage with Ulp protease. All constructs containing the […]\nmeasurements, proteins were expressed in LB medium. Protein expression was induced at an […]\nAfter expression, cells were lysed by […]\nspectrometers equipped with cryogenic 5 mm triple resonance probes. The proton chemical […]\nmercaptoethanol and 5 % D2O. Sequential assignments of backbone amide signals and […]"}, "[7]": {"biological_target": "T1, PaxB_(1-30) (PaxB NDD), X. cabanillasii …", "experiment": "ITC; holo (Ppant), replicate 3"}, "[8]": {"biological_target": "T1, PaxB_(1-30) (PaxB NDD), X. cabanillasii …", "experiment": "ITC; holo (Ppant), mean of three replicates"}, "[9]": {"biological_target": "T1, PaxB_(1-30) (PaxB NDD), X. cabanillasii …", "experiment": "ITC; holo (Ppant), replicate 2"}, "[10]": {"biological_target": "T1, PaxB_(1-30) (PaxB NDD), X. cabanillasii …", "experiment": "ITC; holo (Ppant), replicate 1"}},
  "data": [
    {"molecule": "PaxB_(1-36) (PaxB NDD), X. bovienii SS-2004 (domain or fragment)", "values": [
      {"measurement": "Kd", "setting": "[1]", "result": 201, "unit": "nM"},
      {"measurement": "stoichiometry N", "setting": "[1]", "result": 0.74}
    ]},
    {"molecule": "PaxB_(1-30) (PaxB NDD), X. cabanillasii JM26 (domain or fragment)", "values": [
      {"measurement": "Kd", "setting": "[2]", "result": 248, "unit": "nM"},
      {"measurement": "stoichiometry N", "setting": "[2]", "result": 0.88}
    ]},
    {"molecule": "PaxB NDD P10L variant, X. cabanillasii JM26 (domain or fragment)", "values": [
      {"measurement": "Kd", "setting": "[2]", "result": 3900, "unit": "nM"}
    ]},
    {"molecule": "PaxB NDD R16E mutant, X. cabanillasii JM26 (domain or fragment)", "values": [
      {"measurement": "Kd", "setting": "[2]", "result": 2800, "unit": "nM"}
    ]},
    {"molecule": "PaxB NDD K22E mutant, X. cabanillasii JM26 (domain or fragment)", "values": [
      {"measurement": "Kd", "setting": "[2]", "result": 3800, "unit": "nM"}
    ]},
    {"molecule": "B1", "values": [
      {"measurement": "Kd", "setting": "[3]", "result": 224, "unit": "nM"},
      {"measurement": "Kd", "setting": "[4]", "result": 224, "unit": "nM"},
      {"measurement": "Kd", "setting": "[5]", "result": 267, "unit": "nM"},
      {"measurement": "Kd", "setting": "[6]", "result": 267, "unit": "nM"}
    ]},
    {"molecule": "B2", "values": [
      {"measurement": "n (binding stoichiometry)", "setting": "PaxB NDD", "result": "0.88±0.01", "unit": "sites"}
    ]},
    {"molecule": "B3", "values": [
      {"measurement": "Kd", "setting": "[7]", "result": 192, "unit": "nM"},
      {"measurement": "Kd", "setting": "[8]", "result": 220, "unit": "nM"},
      {"measurement": "Kd", "setting": "[9]", "result": 220, "unit": "nM"},
      {"measurement": "Kd", "setting": "[10]", "result": 248, "unit": "nM"}
    ]}
  ]
}
